Experimental data as given in patent US20250188151A1, “C-JUN ANTAGONIST PEPTIDES” (The University of Bath, priority 2022, published 2025).
Bridge positions count the residues as written; N and C are the ends. Ends that are not written are not given here. Peptide text beside a SMILES is read from it.

What was measured:
[1] = molecular target: cJun bZIP (Homo sapiens, UniProt P05412, S292Y); assay: CD spectra and thermal denaturation of peptide/cJun heterodimers; settings: peptide (5 μM)/c-Jun (5 μM) heterodimer; Table 6
Experimental: Circular Dichroism (CD): An Applied Photophysics Chirascan was used for CD measurements, with a 200 μL sample in a 1 mm path length CD cell. Protein/DNA samples were suspended in 150 mM potassium phosphate, 150 mM potassium fluoride and 5 mM TCEP at pH 7.4 and were equilibrated for 30 minutes before measurement. […] These scans were averaged and converted to molar residue ellipticities (MRE). Thermal denaturation experiments were performed by measuring the ellipticity at 222 nm over a 1 to 90° C. gradient at 1° C. increments. Post-melt scans at 20° C. confirmed the transitions were reversible as they overlaid within 10% of the pre-melt scan.
Circular Dichroism (CD): An Applied Photophysics Chirascan was used for CD measurements, with a 200 μL sample in a 1 mm path length CD cell. Protein/DNA samples were suspended in 150 mM potassium phosphate, 150 mM potassium fluoride and 5 mM TCEP at pH 7.4 and were equilibrated for 30minutes before measurement. […] Thermal denaturation experiments were performed by measuring the ellipticity at 222 nm over a 1 to 90° C. gradient at 1° C. increments. Post-melt scans at 20° C. confirmed the transitions were reversible as they overlaid within 10% of the pre-melt scan.
Peptide helicity was determined by quantifying the CD signal at 222 nm of peptide only samples. Thermal denaturation experiments were then used to determine the Tm of peptide-c-Jun heterodimers, which was used as an approximate measure of target engagement. […] The same 60 amino acid c-Jun bZIP construct was used for all experiments, regardless of antagonist peptide length.

[2] = molecular target: T1, cJun/TRE DNA interaction (Homo sapiens, UniProt P05412, S292Y); assay: CD cJun/TRE DNA antagonism (shift of TRE DNA peak at ~281 nm, Hill fit); format: biochemical; settings: ratio of CD IC50
T1 construct: The same 60 amino acid c-Jun bZIP construct was used for all experiments; His-SUMO (N, cleaved yes); made in house; host or cells: E. coli
Text: Briefly, in TBS the coding region for the essential gene dihydrofolate reductase (DHFR) is mutated to incorporate TRE sites so that introduction of c-Jun to this gene inside E. coli produces a transcriptional block that abrogates cell proliferation. The TRE site-bound c-Jun molecules sterically prevent RNA polymerase transcribing the essential gene and this can only be restored upon introduction of an effective c-Jun/TRE antagonist. Consequently, the survival of a particular cell is controlled by the ability of a peptide library member to remove the c-Jun transcriptional block and therefore to restore DHFR activity. TBS thus facilitates the identification of therapeutically valuable sequences. Further details for the TBS assay are provided in WO2020128015, which is incorporated herein by reference in its entirety. […] The TRE-DNA construct produces a positive CD peak at ˜281 nm, which decreases in intensity upon c-Jun binding. […] This method allows for the calculation of an IC50 value by fitting the titration data to a Hill equation. In some embodiments, the c-Jun antagonist is able to inhibit the DNA-binding activity of c-Jun within 10-fold of the ability of HingeW to inhibit the DNA-binding activity of c-Jun (e.g. the c-Jun antagonist has a reduced ability to inhibit the DNA-binding activity of c-Jun that is within 10-fold of that determined for HingeW). In some embodiments, the c-Jun antagonist is able to inhibit the DNA-binding activity of c-Jun within 9-fold, preferably within 8-fold, more preferably within 7-fold, even more preferably within 6-fold, yet more preferably within 5-fold of the ability of HingeW to inhibit the DNA-binding activity of c-Jun. The ability of the c-Jun antagonist and HingeW to inhibit the DNA-binding activity may be measured using the TBS assay (e.g. by quantifying the number of colonies) or by determining the IC50 using a circular dichroism assay described herein. Optionally, the c-Jun antagonist may have this activity when cross-linked. Methods for cross-linking peptides are described in more detail below.
Therefore, the acidic domain was the initial focus for optimisation. 1 was iteratively truncated (2-6) to investigate the effect on c-Jun binding and c-Jun/TRE DNA antagonism. […] Thermal denaturation experiments were then used to determine the Tm of peptide-c-Jun heterodimers, which was used as an approximate measure of target engagement. CD was also used to investigate the ability of the functional activity of peptides in antagonising the c-Jun/TRE DNA interaction. The TRE-DNA construct used produces a positive CD peak at ˜281 nm (no c-Jun absorbance at this wavelength allows for direct measurement of DNA upon binding) which decreases in intensity upon c-Jun binding. […] This allowed for the calculation of an IC50 value by fitting the titration data to a Hill equation. […] The same 60 amino acid c-Jun bZIP construct was used for all experiments, regardless of antagonist peptide length.

[3] = molecular target: cJun (Homo sapiens, UniProt P05412, S292Y); assay: Isothermal titration calorimetry, Example 2 (PEAQ-ITC); format: binding; set-up: The same 60 amino acid c-Jun bZIP construct was used for all experiments; His-SUMO (N, cleaved yes); made in house; host or cells: E. coli; settings: ITC
Experimental: 2 μL injections of antagonist peptide at 25-200 μM were injected into the cell containing cJun at 2.5-20 μM. Software was used to record and analyse the heat change upon addition. Control experiments involved the injection of the antagonist peptide sample into the cell containing ITC buffer alone to determine the heat of dilution which was subtracted. The resulting binding data were fit to a one site binding model to extract the enthalpy change of binding (ΔH) and the equilibrium binding constant (KD), from which the free energy change of binding (ΔG) and the entropy change of binding (ΔS) was calculated (Wiseman et al., 1989). Thermodynamic parameters are presented as an average of two independent experiments with errors given as one standard deviation.

[4] = molecular target: T2, cJun bZIP (human, UniProt P05412 252-308, limits assumed); assay: cell-based or functional assay
T2 chain: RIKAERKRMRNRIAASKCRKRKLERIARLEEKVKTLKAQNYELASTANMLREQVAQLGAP

[5] = molecular target: T2, cJun bZIP; assay: cell-based or functional assay
[6] = molecular target: T2, cJun bZIP; assay: CD thermal denaturation, peptide 5 µM and c-Jun 5 µM
[7] = molecular target: T2, cJun bZIP; assay: ITC (PEAQ-ITC), peptide injected into cJun, one site model

Molecule: CC[C@H](C)[C@H](NC(=O)[C@H](CCC(=O)O)NC(=O)[C@@H]1CC(=O)NCCCC[C@H](NC(=O)[C@H](CC(N)=O)NC(=O)[C@H](CCCCN)NC(=O)[C@H](CCC(=O)O)NC(=O)[C@H](CCC(=O)O)NC(=O)[C@H](CC(C)C)NC(=O)[C@H](CCC(N)=O)NC(=O)[C@H](CCC(=O)O)NC(=O)[C@@H](NC(=O)[C@H](CCC(=O)O)NC(=O)[C@H](CCC(=O)O)NC(=O)[C@H](CCC(=O)O)NC(=O)[C@H](CC(C)C)NC(=O)[C@@H](NC(=O)[C@H](CC(=O)O)NC(=O)[C@H](CCC(=O)O)NC(=O)[C@H](CCC(=O)O)NC(=O)[C@@H](NC(=O)[C@@H](NC(=O)[C@H](CC(C)C)NC(C)=O)C(C)C)C(C)C)C(C)C)[C@@H](C)CC)C(=O)N[C@@H](C)C(=O)N[C@@H](CC(C)C)C(=O)N[C@@H](CCCCN)C(=O)N1)C(=O)N[C@@H](CCC(=O)O)C(=O)N[C@@H](CC(=O)O)C(=O)N[C@@H](CC(C)C)C(=O)N[C@@H](CCC(N)=O)C(=O)N[C@@H](CCCCN)C(=O)N[C@@H](CCC(N)=O)C(=O)N[C@@H](CC(C)C)C(=O)N[C@@H](CCC(=O)O)C(=O)N[C@@H](CCCCN)C(=O)N[C@@H](CC(C)C)C(=O)N[C@@H](Cc1ccc(O)cc1)C(N)=O [Peptide 8]
- Tm (° C.) [1]: 67.2 ± 0.8 °C
- fold increase in antagonism relative to the linear counterpart 5 [2]: 1.8 fold

Molecule: CC[C@H](C)[C@H](NC(=O)[C@H](CCC(=O)O)NC(=O)[C@@H]1CC(=O)NCCCC[C@H](NC(=O)[C@H](CC(N)=O)NC(=O)[C@H](CCCCN)NC(=O)[C@H](CCC(=O)O)NC(=O)[C@H](CCC(=O)O)NC(=O)[C@H](CC(C)C)NC(=O)[C@H](CCC(N)=O)NC(=O)[C@H](CCC(=O)O)NC(=O)[C@@H](NC(=O)[C@H](CCC(=O)O)NC(=O)[C@H](CCC(=O)O)NC(=O)[C@H](CCC(=O)O)NC(=O)[C@H](CC(C)C)NC(=O)[C@@H](NC(=O)[C@H](CC(=O)O)NC(=O)[C@H](CCC(=O)O)NC(=O)[C@H](CCC(=O)O)NC(=O)[C@@H](NC(=O)[C@@H](NC(=O)[C@H](CC(C)C)NC(=O)[C@H](CCC(=O)O)NC(=O)[C@H](CCC(=O)O)NC(=O)[C@H](C)NC(=O)[C@H](CCC(=O)O)NC(C)=O)C(C)C)C(C)C)C(C)C)[C@@H](C)CC)C(=O)N[C@@H](C)C(=O)N[C@@H](CC(C)C)C(=O)N[C@@H](CCCCN)C(=O)N1)C(=O)N[C@@H](CCC(=O)O)C(=O)N[C@@H](CC(=O)O)C(=O)N[C@@H](CC(C)C)C(=O)N[C@@H](Cc1ccc(O)cc1)C(N)=O [Peptide 27] (Ac-EAEELVVEEDVLEEEIEQLEEKNKALKDEIEDLY-NH2; lactam 24-28)
- Tm (° C.) [1]: 52.5 ± 1.4 °C
- fold reduction in cJun/TRE antagonism relative to 1 [2]: 8.8 fold

Molecule: Ac-EAEELVVEEDVLEEEIEQLEERNYALRKEIEDLQKQLEKL-NH2 [Peptide 4]
- Tm (° C.) [1]: 64.1 ± 1.5 °C
- ΔG [3]: -9.68 ± 0.115 kcal/mol
- ΔH [3]: -45.399 ± 1.93 kcal/mol
- −TΔS [3]: 35.73 ± 1.94 kcal/mol
- Stoichiometry, n ([3]; c-Jun-peptide interaction): 0.91 ± 0.04

B1: HingeW peptide variant 2 (peptide)
peptide: Ac-LARENEELEKEAEELVVEEDVLEEEIEQLEERNYALRKEIEDLQKQLEKL-NH2
notes: Synthetic, NΔ10 CΔ3; also called peptide 2
- IC50 CD [4]: 16.6 µM
- fold decrease in antagonism, 1 to 2 [5]: 1.2 fold
- fold more effective antagonism than 10 [5]: 4 fold
- Tm (° C.) of peptide-c-Jun heterodimer [6]: 68.5 ° C.

B2: HingeW variant peptide 11 (peptide)
peptide: Ac-EAEELVVEEDVLEEEIEQLEERNYALRKEIEDLQKQ-NH2
notes: Synthetic, NΔ20 CΔ7
- IC50 CD [4]: 82.1 µM
- fold reduction in antagonism, 4 to 11 [5]: 1.8 fold
- Tm (° C.) of peptide-c-Jun heterodimer [6]: 57.1 ° C.
- -TΔS [7]: -2.14 kcal/mol
- Kd [7]: 1.1 µM
- Stoichiometry, n [7]: 0.95
- ΔG [7]: -8.15 kcal/mol
- ΔH [7]: -5.99 kcal/mol

B3: HingeW variant peptide 29 (peptide)
peptide: Ac-EAEELVVEEDVLEEEIEQLEERNYALRKEIEDLQ-NH2
modifications: lactam 28-32 (inferred)
notes: Synthetic, NΔ20 CΔ9; also called cyclised form of 28/29
- IC50 CD [4]: 140 µM
- fold reduction in antagonism relative to 1 [5]: 10.4 fold
- Tm (° C.) of peptide-c-Jun heterodimer [6]: 57.2 ° C.

B4: HingeW peptide variant 3 (peptide)
peptide: Ac-LEKEAEELVVEEDVLEEEIEQLEERNYALRKEIEDLQKQLEKL-NH2
notes: Synthetic, NΔ17 CΔ3; also called peptide 3
- IC50 CD [4]: 33.7 µM
- fold decrease in antagonism, 2 to 3 [5]: 2 fold
- Tm (° C.) of peptide-c-Jun heterodimer [6]: 67.9 ° C.

B5: HingeW variant peptide 8 (peptide)
peptide: Ac-LVVEEDVLEEEIEQLEEKNKALKDEIEDLQKQLEKLY-NH2
modifications: lactam 20-24 (inferred); also: table prints a different, shorter sequence for 7/8
notes: See peptide 7; also called cyclised form of 7/8
- IC50 CD [4]: 73.5 µM
- fold increase in antagonism relative to 5 [5]: 1.8 fold
- Tm (° C.) of peptide-c-Jun heterodimer [6]: 67.2 ° C.

B6: HingeW variant peptide 27 (peptide)
peptide: Ac-EAEELVVEEDVLEEEIEQLEEKNKALKDEIEDLY-NH2
modifications: lactam 24-28 (inferred)
notes: Synthetic, NΔ20 CΔ10; also called cyclised form of 26/27
- IC50 CD [4]: 118 µM
- fold reduction in antagonism relative to 1 [5]: 8.8 fold
- Tm (° C.) of peptide-c-Jun heterodimer [6]: 52.5 ° C.

B7: Peptide 6 (peptide)
peptide: EDVLEEEIEQLEERNYALRKEIEDLQKQLEKLGAP-NH2
notes: NΔ28; also called LZ-only portion of the HingeW molecule
- IC50 CD [4]: 130 µM
- fold decrease in antagonism, 5 to 6 [5]: 1.7 fold
- fold decrease in cJun/TRE DNA antagonism, 1 to 6 [5]: 9.7 fold
- Tm (° C.) of peptide-c-Jun heterodimer [6]: 55.1 ° C.

B8: HingeW variant peptide 25 (peptide)
peptide: Ac-EAEELVVEEDVLEEEIEQLEERNYALRKEIEDL-NH2
notes: Synthetic, NΔ20 CΔ10
- IC50 CD [4]: 1210 µM
- fold reduction in antagonism compared to 4 [5]: 26.7 fold
- fold reduction in antagonism compared to 11 [5]: 14.8 fold
- Tm (° C.) of peptide-c-Jun heterodimer [6]: 44.8 ° C.

B9: Peptide 5 (peptide)
peptide: Ac-LVVEEDVLEEEIEQLEERNYALRKEIEDLQKQLEKL-NH2
notes: Synthetic, NΔ24 CΔ3
- IC50 CD [4]: 78.2 µM
- fold better antagonism than 6 [5]: 1.7 fold
- fold decrease in antagonism, 3 to 5 [5]: 2.3 fold
- fold lower antagonism than 1 [5]: 5.8 fold
- fold reduction in antagonism, 4 to 5 [5]: 1.7 fold
- Tm (° C.) of peptide-c-Jun heterodimer [6]: 62.8 ° C.

B10: HingeW variant peptide 10 (peptide)
peptide: Ac-LVVEEDVLEEEIEQLEERNYALRKEIEDLQKQLEDL-NH2
modifications: lactam (positions not given here); also: one i to i+4 K-to-D lactam, places not given here (K24/D28 or K31/D35)
notes: Synthetic, NΔ24 CΔ3; also called cyclised form of 9/10
- IC50 CD [4]: 69 µM
- fold increase in antagonism relative to 5 [5]: 1.9 fold
- Tm (° C.) of peptide-c-Jun heterodimer [6]: 68.3 ° C.
